Results on 1 variant are retold here after paper PMC11441981.

First the molecules themselves.
B1: GST-tagged CG9590 (Drosophila FAM114A) [Drosophila] / Vap33 [Drosophila (endogenous in S2 cells)] (parent)
chain 1: MAKNPKKEEDGGNDWAQSDEDDNWDDWGDDDDKFVHVEKEQQPQEKVSSRNDAKGTAENQEKLETPRISAPATASATSSSWGLWGGKLSSVLTTATEGLGTITTQVNQGLNQIIGVPDPEELARINVAEKAEKAAKAPPEENVDDEKESSAAFGLDFVTNLGSKVLNTGLDTLEGIGKKTMTILQDNDPKLMNKRKLLGLEANSPNLSAVLLEAKKEADQMEQSLQQLQLKRQKAQLRFEILFENYCGLVHFEALEILSKESRLKLDTLLDAVSGNARAELQETINEVKELIELEDLDVESEGDYEAEELSERLAATIKDAELGIQFDDIANHWTQSLSWLTSEEATAADLEQAYAKSIHALSEACALEMCKLHKIAELLLVKPHHSTANEVDGVVNLCQQFNGHLQGLSHRFAAVLSGKSETEESKGRVSTFFSEMLSAVQFIEKAYKLFTPILQMGAV
chain 2: MSKSLFDLPLTIEPEHELRFVGPFTRPVVTIMTLRNNSALPLVFKIKTTAPKRYCVRPNIGKIIPFRSTQVEICLQPFVYDQQEKNKHKFMVQSVLAPMDADLSDLNKLWKDLEPEQLMDAKLKCVFEMPTAEANAENTSGGGAVGGGTGAAGGGSAGANTSSASAEALESKPKLSSEDKFKPSNLLETSESLDLLSGEIKALRECNIELRRENLHLKDQITRFRSSPAVKQVNEPYAPVLAEKQIPVFYIAVAIAAAIVSLLLGKFFL

The assay covers variants of B1. The experiment in a line: GST pull-down from S2 cell lysate with mass spectrometry (volcano plot of spectral intensities). Particulars: three biological replicates, read off a plot.
chain 1 W24A W27A: the screen value worked out at 5.2 log2.
